Test results: the Human Domainome abundance scans (Beltran et al. 2025)
± gives the uncertainty stated by the source.

B1: Pituitary-specific positive transcription factor 1, residues 130 to 198; numbered along this chain, P28069 (parent)
chain: RELEKFANEFKVRRIKLGYTQTNVGEALAAVHGSEFSQTTICRFENLQLSFKNACKLKAILSKWLEEAE
B2: POU domain, class 4, transcription factor 1, residues 266 to 347; numbered along this chain, Q01851 (parent)
chain: RELEAFAERFKQRRIKLGVTQADVGSALANLKIPGVGSLSQSTICRFESLTLSHNNMIALKPILQAWLEEAEGAQREKMNKP

Variants of: B1
Assay: abundance fitness (aPCA) (normalised: wild type 0, dead -1); higher = more abundant; growth selection in yeast, the domain comes from the species named
Conditions: Homo sapiens

Variant | abundance fitness
RELEKFANEFKVRRIKLGYTQTNVGEALAAVHGSEFSQTTICRFENLQLSFKNACKLKAILSKWLEERE [A68R] | -0.232 ± 0.077
RELEKFANEFKVRRIKLGYTQTNVGEALAAVHGSEFSQTTICMFENLQLSFKNACKLKAILSKWLEEAE [R43M] | 0.234 ± 0.17
RELEKFANEFKVRRIKLGYTQTNVGEALAAVHGSEFSQTTICRFENSQLSFKNACKLKAILSKWLEEAE [L47S] | -0.168 ± 0.072
RELEKFANEFKVRRIKLGYTQTYVGEALAAVHGSEFSQTTICRFENLQLSFKNACKLKAILSKWLEEAE [N23Y] | 0.008 ± 0.1
RELEKFANEFKVRRIKLGYTQTNSGEALAAVHGSEFSQTTICRFENLQLSFKNACKLKAILSKWLEEAE [V24S] | -0.681 ± 0.16
RELEKPANEFKVRRIKLGYTQTNVGEALAAVHGSEFSQTTICRFENLQLSFKNACKLKAILSKWLEEAE [F6P] | -0.835 ± 0.19

Variants of: B2
Assay: as above
Conditions: Homo sapiens

Variant | abundance fitness
AELEAFAERFKQRRIKLGVTQADVGSALANLKIPGVGSLSQSTICRFESLTLSHNNMIALKPILQAWLEEAEGAQREKMNKP [R1A] | -0.132 ± 0.042
CELEAFAERFKQRRIKLGVTQADVGSALANLKIPGVGSLSQSTICRFESLTLSHNNMIALKPILQAWLEEAEGAQREKMNKP [R1C] | -0.053 ± 0.038
DELEAFAERFKQRRIKLGVTQADVGSALANLKIPGVGSLSQSTICRFESLTLSHNNMIALKPILQAWLEEAEGAQREKMNKP [R1D] | 0.008 ± 0.066
EELEAFAERFKQRRIKLGVTQADVGSALANLKIPGVGSLSQSTICRFESLTLSHNNMIALKPILQAWLEEAEGAQREKMNKP [R1E] | 0.007 ± 0.052
FELEAFAERFKQRRIKLGVTQADVGSALANLKIPGVGSLSQSTICRFESLTLSHNNMIALKPILQAWLEEAEGAQREKMNKP [R1F] | 0.028 ± 0.12
GELEAFAERFKQRRIKLGVTQADVGSALANLKIPGVGSLSQSTICRFESLTLSHNNMIALKPILQAWLEEAEGAQREKMNKP [R1G] | -0.05 ± 0.023
HELEAFAERFKQRRIKLGVTQADVGSALANLKIPGVGSLSQSTICRFESLTLSHNNMIALKPILQAWLEEAEGAQREKMNKP [R1H] | -0.326 ± 0.18
IELEAFAERFKQRRIKLGVTQADVGSALANLKIPGVGSLSQSTICRFESLTLSHNNMIALKPILQAWLEEAEGAQREKMNKP [R1I] | 0.039 ± 0.067
LELEAFAERFKQRRIKLGVTQADVGSALANLKIPGVGSLSQSTICRFESLTLSHNNMIALKPILQAWLEEAEGAQREKMNKP [R1L] | -0.084 ± 0.059
MELEAFAERFKQRRIKLGVTQADVGSALANLKIPGVGSLSQSTICRFESLTLSHNNMIALKPILQAWLEEAEGAQREKMNKP [R1M] | 0.004 ± 0.045
NELEAFAERFKQRRIKLGVTQADVGSALANLKIPGVGSLSQSTICRFESLTLSHNNMIALKPILQAWLEEAEGAQREKMNKP [R1N] | 0.02 ± 0.05
QELEAFAERFKQRRIKLGVTQADVGSALANLKIPGVGSLSQSTICRFESLTLSHNNMIALKPILQAWLEEAEGAQREKMNKP [R1Q] | -0.325 ± 0.17
SELEAFAERFKQRRIKLGVTQADVGSALANLKIPGVGSLSQSTICRFESLTLSHNNMIALKPILQAWLEEAEGAQREKMNKP [R1S] | -0.026 ± 0.033
TELEAFAERFKQRRIKLGVTQADVGSALANLKIPGVGSLSQSTICRFESLTLSHNNMIALKPILQAWLEEAEGAQREKMNKP [R1T] | -0.011 ± 0.04
VELEAFAERFKQRRIKLGVTQADVGSALANLKIPGVGSLSQSTICRFESLTLSHNNMIALKPILQAWLEEAEGAQREKMNKP [R1V] | -0.09 ± 0.038
WELEAFAERFKQRRIKLGVTQADVGSALANLKIPGVGSLSQSTICRFESLTLSHNNMIALKPILQAWLEEAEGAQREKMNKP [R1W] | -0.134 ± 0.033
YELEAFAERFKQRRIKLGVTQADVGSALANLKIPGVGSLSQSTICRFESLTLSHNNMIALKPILQAWLEEAEGAQREKMNKP [R1Y] | -0.076 ± 0.085
RALEAFAERFKQRRIKLGVTQADVGSALANLKIPGVGSLSQSTICRFESLTLSHNNMIALKPILQAWLEEAEGAQREKMNKP [E2A] | -0.267 ± 0.028
RCLEAFAERFKQRRIKLGVTQADVGSALANLKIPGVGSLSQSTICRFESLTLSHNNMIALKPILQAWLEEAEGAQREKMNKP [E2C] | -0.306 ± 0.046
RDLEAFAERFKQRRIKLGVTQADVGSALANLKIPGVGSLSQSTICRFESLTLSHNNMIALKPILQAWLEEAEGAQREKMNKP [E2D] | 0.023 ± 0.039
RFLEAFAERFKQRRIKLGVTQADVGSALANLKIPGVGSLSQSTICRFESLTLSHNNMIALKPILQAWLEEAEGAQREKMNKP [E2F] | -0.245 ± 0.07
RGLEAFAERFKQRRIKLGVTQADVGSALANLKIPGVGSLSQSTICRFESLTLSHNNMIALKPILQAWLEEAEGAQREKMNKP [E2G] | -0.102 ± 0.023
RHLEAFAERFKQRRIKLGVTQADVGSALANLKIPGVGSLSQSTICRFESLTLSHNNMIALKPILQAWLEEAEGAQREKMNKP [E2H] | -0.194 ± 0.048
RILEAFAERFKQRRIKLGVTQADVGSALANLKIPGVGSLSQSTICRFESLTLSHNNMIALKPILQAWLEEAEGAQREKMNKP [E2I] | -0.266 ± 0.062
RKLEAFAERFKQRRIKLGVTQADVGSALANLKIPGVGSLSQSTICRFESLTLSHNNMIALKPILQAWLEEAEGAQREKMNKP [E2K] | -0.069 ± 0.04
RLLEAFAERFKQRRIKLGVTQADVGSALANLKIPGVGSLSQSTICRFESLTLSHNNMIALKPILQAWLEEAEGAQREKMNKP [E2L] | -0.332 ± 0.032
RMLEAFAERFKQRRIKLGVTQADVGSALANLKIPGVGSLSQSTICRFESLTLSHNNMIALKPILQAWLEEAEGAQREKMNKP [E2M] | -0.17 ± 0.036
RNLEAFAERFKQRRIKLGVTQADVGSALANLKIPGVGSLSQSTICRFESLTLSHNNMIALKPILQAWLEEAEGAQREKMNKP [E2N] | 0.025 ± 0.049
